The results in this text go back to paper PMC7340258, “Induced DNA bending by unique dimerization of HigA antitoxin” (IUCrJ, 2020).

Data set [1] concerns the molecule itself. The experiment in a line: SEC; Superdex 75 (10/300GL), 20 mM citric acid pH 5.0, 150 mM NaCl, 2 mM β-mercaptoethanol; single peak at 26 kDa. Background: SEC sorts molecules by how far they enter the pores of the column.
The target of another data set is T1, MtHigA3 (Mycobacterium tuberculosis H37Rv, UniProt O53333 1-109).
T1 sequence: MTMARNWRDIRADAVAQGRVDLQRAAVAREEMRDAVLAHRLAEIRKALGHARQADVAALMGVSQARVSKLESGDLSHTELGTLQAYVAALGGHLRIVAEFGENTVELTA
Put plainly: EMSA; 0.1-0.6 uM protein, 0.01 uM DNA. Conditions: protein: recombinant; tags: C-terminal […]; chain copies: 2; blunt. Background: In EMSA bound probe runs differently from free probe, usually more slowly.

What is called stoichiometry N is a count of units in the complex or per binding partner.

B1: M. tuberculosis HigA3 antitoxin (natural protein)
chain: T1 sequence
notes: also called MtHigA3
Turning to B1, in data set [1], the “stoichiometry N” value stood at 2.

B2: DNA4 (DNA-4, palindrome around -10 box) (dsDNA)
DNA 1: AGATATAACCTAGAGGTTATACTG
DNA 2: CAGTATAACCTCTAGGTTATATCT
As for B2, the binding result with MtHigA3 is “no binding”.

B3: DNA1 (DNA-1, -35 box) (dsDNA)
DNA 1: CCGACGATGACCGCGCAC
DNA 2: GTGCGCGGTCATCGTCGG
Turning to B3, the binding result with MtHigA3 is “no binding”.
